Test [1] has as its target T1, B Lymphocyte Stimulator, soluble form (human) (human, UniProt Q9Y275 134-285, biotinylated with NHS-biotin where used as biotinylated B Lymphocyte Stimulator).
T1 construct: Coated on plastic, captured on streptavidin plates, amine-coupled to a CM5 chip or free in solution, depending on the assay; also called BLyS; immobilized B Lymphocyte Stimulator
Description: phage display panning on soluble BLyS. An excerpt: (§1) In a specific embodiment, antibodies of the present invention cross react with APRIL (SEQ ID NO:3239; GenBank Accession No. AF046888; J. Exp. Med. 188(6):1185-1190; PCT International Publication WO97/33902). […] These scFvs were isolated by panning a phage scFv library comprising VH and VL domains obtained from human bone marrow B cells (BM library). Phage from the BM phage library were first selected for binding to soluble B Lymphocyte Stimulator (amino acids 134-285 of SEQ ID NO:3228). A second round of selection for binding to the soluble form of APRIL (amino acids 105-250 of SEQ ID NO:3239) was then performed on the B Lymphocyte Stimulator binding phage selected in round one. A third round of selection for binding to the soluble form of APRIL (amino acids 105-250 of SEQ ID NO:3239) was then performed on the phage selected in round two. A final (fourth) round of selection for binding to the soluble form of B Lymphocyte Stimulator (amino acids 134-285 of SEQ ID NO:3228) was then performed on the phage selected in round three. Phage clones that bound B Lymphocyte Stimulator in the fourth round of selection were eluted with either 0.1M triethylamine (TEA) or with a TACI-Fc fusion protein (e.g., the extracellular domain of TACI (amino acids 31 to 159 of Genbank Accession No. AAC51790) fused to Fc).

Another test addresses T2, APRIL, soluble form (Homo sapiens (Human), UniProt O75888 105-250).
T2 sequence: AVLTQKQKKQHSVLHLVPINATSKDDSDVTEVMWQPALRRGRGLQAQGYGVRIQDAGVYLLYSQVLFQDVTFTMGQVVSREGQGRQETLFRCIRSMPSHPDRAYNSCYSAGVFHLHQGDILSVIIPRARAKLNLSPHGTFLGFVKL
Description: phage display panning on soluble APRIL, rounds two and three.
Excerpt: as §1

Test [2] deals with T3, HIS-tagged B Lymphocyte Stimulator (human, UniProt Q9Y275 71-285).
T3 construct: Expressed in E. coli from pQE9 and purified; also called histidine-tagged B Lymphocyte Stimulator; HIS-B Lymphocyte Stimulator; not shown: histidine tag of the pQE9 vector
Description: BIAcore, periplasmic scFv on high density HIS-BLyS surface. How it is done: All BIAcore analysis was performed on BIAcore 2000 machines, using the BIAcore 2000 control software and evaluated using the BIAevaluation 3.0 software. A high density His-tagged B Lymphocyte Stimulator surface (>1000 RU HIS-B Lymphocyte Stimulator coupled) was prepared in flow cell 2 by amine coupling to a CM5 chip. A new CM5 chip was inserted into the BIAcore and a sensorgram started over flow cell 2 with HBS buffer at a flow rate of 5 μl/min. The NHS and EDC solution were mixed 1:1 before injecting 30 μl over the CM5 surface. Fifty μl HIS-B Lymphocyte Stimulator (at 10 μg/ml in Sodium acetate buffer, pH4) was injected and allowed to couple to the surface. Thirty μl of ethanolamine-HCl solution was then injected to block free NHS esters. Prior to using the chip, 10 μl of 4M Guanidine hydrochloride in HBS was injected over the surface to strip the surface of non-covalently bound B Lymphocyte Stimulator. A blank surface (no HIS-B Lymphocyte Stimulator) was also prepared over flow cell 1 so that non-specific binding effects can be subtracted from the HIS-B Lymphocyte Stimulator binding curves.
The 96-well plate containing periplasmic scFvs was secured inside the BIAcore. Two ml of 4M Guanidine hydrochloride in HBS was placed in a rack inside the BIAcore for regeneration of the HIS-B Lymphocyte Stimulator surface between samples. The sensorgram was run over flow cells 1 and 2 at a flow rate of […].

Test [3] deals with T4, B Lymphocyte Stimulator, soluble form (human, UniProt Q9Y275 134-285).
T4 construct: also called BLyS; Neutrokine-alpha
Kind of test: BIAcore, IgG1 captured on low-density Protein A, BLyS flowed over; mean ± SD. How it is done:
Briefly, antibodies were captured on low-density Protein A surfaces and B Lymphocyte Stimulator was passed over at various flow rates. The binding of B Lymphocyte Stimulator to immobilized antibody was detected by changes in […] that were proportional to the amount of bound B Lymphocyte Stimulator. Binding values were calculated using software provided by the manufacturer.

B1: BAB2034 (scFv)
scFv: QVQLQQSGPGLVKPSQTLSLTCAISGDSVSSNSAAWNWIRQSPSRGLEWLGRTYYRSKWYNDYAVSVKSRITINPDTSKNQFSLQLNSVTPEDTAVYYCAREGAHYDILTGHNYYHYGMDVWGQGTMVTVSSGGGGSGGGGSGGGGSQSVLTQPPSASGSPGQSVTISCTGTSSDVGGYNYVSWYQQHPGKAPKFMIYDVSKRPSGVSNRFSGSKSGNTASLTISGVQAEDEADYYCSSYTSASTVIFGGGTKLTVLG
As for B1, the binding result is given as “binds” in test [1] and “binds” with APRIL, soluble form.

B2: BAB2001 (scFv)
scFv: GVQLVQSGAEVRKPGASVKVSCKPSGYPFSGNYIHWVRQAPGQGPEWMGWINPNSGDTKYSQKFQGWVTMTRDTSVSTVYMELNRLKSDDTAIYYCAREQYDTLTGSPYGMDVWGKGTLVTVSSGGGGSGGGGSGGGGSDIQMTQSPSTLSASIGDRVTITCRASQGINNYLAWYQQKPGRAPKLLIYAASSLQSGVPSRFSGSGSGTDFTLTISSLQPEDFATYYCLQDSDYPLTFGGGTKLEIKR
Consider B2, for which the binding result was “binds” in test [1] and “binds” with APRIL, soluble form.

B3: BAB2087 (scFv)
scFv: QVQLVQSGAEVKKPGASVKVSCKASGFAFSSYDINWVRQAPGQGLEWMGWMNPKSGKTGYAQNFQGRVTMTRNTSISTAYMELSSLKSEDTAVYFCARGFTGYDILTDYYSVDYFDSWGRGTLVTVSSGGGGSGGGGSGGGGSALPVLTQPPSVSVAPGQTARITCGGSSIGRKSVHWYQQSPGQAPVLVVYDDSDRPSGIPERFSGSNSGDTATLTISRVEVGDEADYYCQVWDINSDHVVFGGGTKLTVLG
B3: the binding result in test [1] was “binds”; with APRIL, soluble form it was “binds”.

B4: BAB2080 (scFv)
scFv: KVQLVQSGGGLVKPGGSLRLSCAASGFTFSNYGMHWVRQAPGKGLEWVALISYDGSNKYYADSVKGRFTISRDNSKNTLYLQMNSLRAEDTAVYYCAKLNSLRGGHDYWGRGTLVTVSSGGGGSGGGGSGGGGSQSVLTQPPSVSAAPGQKVTISCSGSTSNIGNNYVSWYQQHPGKAPKLMIYDVSKRPSGVPDRFSGSKSSNSASLDISGLQSEDEADYYCAAWDDSLSEFLFGTGTKLTVLG
With B4, the binding result in test [1] was “binds”; in the test with APRIL, soluble form, “binds”.

B5: BAB2019 (scFv)
scFv: EVQLVQSGAEVKKPGASVKVSCKASGYTFTSSGISWVRQAPGQGLEWMGWINGYNGNTKYAQKFQGRVTMTTDTSTTTAYMELRSLRSDDTAVYYCARDSYDILTDYYNMIMDVWGQGTLVTVSSGGGGSGGGGSGGGGSQSVLTQPASVSGSPGQSITISCTGTSSDVGGYNYVSWYQQHPGKAPKLMIYEGSKRPSGVSNRFSGSKSGNTASLTISGLQAEDEADYYCSSYTTRSTRVFGGGTKLTVLG
B5: the binding result is “binds” in test [1] and “binds” with APRIL, soluble form.

B6: I084C11 (scFv)
scFv: GVQLEESGAEVKKPGASVKVSCKASGYTFTGYYMHWVRQAPGQGLEWMGWINPNSGGTNYAQKFQGRVTMTRDTSISTAYMELSRLRSDDTAVYYCARGNAWGAFDIWGRSTLVTVSSGGGGSGGGGSGGGGSQSVLTQPASVSGSPGQSITISCTGTSSDVGGYNYVSWYQQHPGKAPKLMIYEGSKRPSGVSNRFSGSKSGNTASLTVSGLQAEDEADYYCSSYTTRSTRVFGGGTKLTVLG
As for B6, the binding result in test [2] is “binds”.

B7: I080A08 (scFv)
scFv: QVTLKESGGDLVQPGGSLRLSCAASGLTFMSYAMTWVRQAPGKGLEWVSSISGSGDNTYYGDSVRGRFTISRDNSKNTLFLQLNSLRAEDTAFYYCAKVHSTGYAFENWGRGTLVTVSSGGGGSGGGGSGGGGSAQSVLTQPPSVSGAPGQRVTISCTGSSSNIGAGYNVHWYQQLPGTAPRLLISSNTNRPSGVPDRFSGSKSGTSASLAITGLQAEDEADYYCQSYDSSLSGFVFGTGTKVTVLG
In the case of B7, in test [2], the binding result is listed as “binds”.

B8: I084B02 (scFv)
scFv: QVQLVQSGGGLVQPGGSLRLSCAASGFTFSSYEMNWVRQAPGKGLEWVSYISSSGSTTYYADSVKGRFTISRDNAKNSLYLQMNSLRAEDTAVYYCARDTTDYWGQGTLVTVSSGGGGSGGGGSGGGGSDIVMTQSPSTLSASVGDRVTITCRASQGISSWLAWYQQKPGRAPKVLIYKASTLESGVPSRFSGSGSGTDFTLTISSLQPEDFATYYCQQSYSTPWTFGQGTKLEIKR
On to B8, for which the binding result in test [2] was “binds”.

B9: BAB2015 (scFv)
scFv: QVQLVQSGAEVKKPGSSVKVSCKASGGTLGNYGISWVRQAPGQGLEWMGAIIPNFGTTNYVQKFQGRVTMTTDTSTSTAYMELRSLRSDDTAVYYCARGASSGWYDYYYYMDVWGKGTMVTVSSGGGGSGGGGSGGGGSDIQMTQSPSTLSASIGDRVTITCRASEGIYHWLAWYQQKPGKAPKLLIYKASSLASGAPSRFSGSGSGTDFTLTISSLQPDDFATYYCQQYSNYPLTFGGGTKLEIRR
In the case of B9, the binding result in test [1] is recorded as “binds”; in the test with APRIL, soluble form, “binds”.

B10: BAB2065 (scFv)
scFv: GVQLVQSGAEVKKPGASVKVSCKASGYTFTKYTMHWVRQAPGQGPEWMGWINGGSGDTKYSRKFQGRVTITKDTSASAAYMELSSLGSEDTALYYCARATYDPLTGYSFDGFDIWGQGTMVTVSSGGGGSGGGGSGGGGSSELTQPASVSGSPGQSITISCTGTSSDVGGYNYVSWYQQHPGKAPKLMIYEGSKRPSGVSNRFSGSKSGNTASLTISGLQAEDEADYYCSSYTTRSTRVFGGGTKLTVLG
Turning to B10, the binding result in test [1] was “binds”; with APRIL, soluble form, “binds”.

B11: I116A01 IgG1 (antibody, V domains shown)
VH: QVQLQQSGAEVKKPGSSVRVSCKASGGTFNNNAINWVRQAPGQGLEWMGGIIPMFGTAKYSQNFQGRVAITADESTGTASMELSSLRSEDTAVYYCARSRDLLLFPHHALSPWGRGTMVTVSS
VL: SSELTQDPAVSVALGQTVRVTCQGDSLRSYYASWYQQKPGQAPVLVIYGKNNRPSGIPDRFSGSSSGNTASLTITGAQAEDEADYYCSSRDSSGNHWVFGGGTELTVLG
Consider B11, for which, in test [3], the Kd was 0.267 nM, the koff amounted to 0.000332 s⁻¹ and the kon amounted to 1.26e+06 M⁻¹ s⁻¹.

B12: I006D08 IgG1 (antibody, V domains shown)
VH: QVQLQQSGAEVKKPGSSVRVSCKASGGTFNNNAINWVRQAPGQGLEWMGGIIPMFGTAKYSQNFQGRVAITADESTSTASMELSSLRSEDTAVYYCARSRDLLLFPHYGMDVWGRGTMVTVSS
VL: SSELTQDPAVSVALGQTVRVTCQGDSLRSYYASWYQQKPGQAPVLVIYGKNNRPSGIPDRFSGSSSGNTASLTITGAQAEDEADYYCNSRDSSGNHWVFGGGTELTVLG
In test [3], B12 displayed a Kd of 0.498 nM, a koff of 0.00058 s⁻¹ and a kon of 1.43e+06 M⁻¹ s⁻¹.

B13: BAB2016 (scFv)
scFv: EVQLVQSGGGLVQPGGSLRLSCAASGFTFSSYWMSWVRQAPGKGLEWVANIKQDGSGKYYVDSVKGRFTISRDNAKNSLYLQMNSLRAEDTAVYYCARDPRYDILTGYLYGMDVWGQGTMVTVSSGGGGSGGGGSGGGGSQSVLTQPASVSGSPGQSITISCTGTSSDVGGYNYVSWYQQHPGKAPKLMIYEGSKRPSGVSNRFSGSKSGNTASLTISGLQAEDEADYYCSSYTTRSTRVFGGGTKLTVLG
On to B13, for which the binding result was “binds” in test [1] and “binds” with APRIL, soluble form.

Source of the values: patent US20110293610A1 (published 2011).
